Measurements published in patent US7645735B2, “Anti-angiogenic peptides for treating or preventing endometriosis” (Children's Medical Center Corporation, priority 2003, dated 2010).
Where “and” joins values, the source holds several entries; their conditions need not be identical. Equal entries are not always repeated.

Tests used:
Female SCID mice = assay: Fertility, pregnancy and offspring in tumor-bearing female SCID mice
Description: Female SCID mice were injected with human pancreatic tumor cells subcutaneously. When tumors reached a volume of approximately 100 mm^3 endostatin or placebo treatment was initiated and continued until the end of the study. After three days, females were mated.
Human BxPC-3 cells were grown in cells culture as described above. After washing with sterile PBS, cells were trypsinized and briefly re-suspended in RPMI 1640 medium containing 10% fetal calf serum (FCS) and 1% glutamine penicillin streptomycin (GPS) solution. After centrifuging, the cell concentration was adjusted to 50×10^6 cells/ml in additive-free RPMI 1640 medium and kept on ice. Female SCID mice were shaved on the dorsal side and the naked skin was cleaned with ethanol prior to injection. A suspension of 5×10^6 cells/ml in 100 μl was then injected subcutaneously into the dorsa of these mice at about one centimetre left of the midline.
Mice were weighed and tumors were measured every 7 days in two diameters using a dial-caliper. Tumor volumes were calculated using the formula a^2×b×0.52, while a being the shorter and b being the longer diameter. When tumors had reached a volume of approximately 100 mm^2 mice were divided into four groups.
During the first experiment, one group received endostatin (20 mg/kg; n=8) or vehicle (n=8) via subcutaneous osmotic pumps (Durect Corp., Cupertino, Calif.). Pumps were inserted via a small incision and placed into a subcutaneous pocket on the right lateral aspect of the animals' dorsa. The pumps were changed every week for a total of four weeks.
The other group received daily subcutaneous injections of endostatin (100 mg/kg, n=5) or vehicle (n=5) for the same period.
During a second study we repeated the experiment with endostatin in subcutaneous pumps. The other group in this series received the murine N-terminal fragment of endostatin (mP-1) at a dose of 2.5 mg/kg twice daily or PBS (n=5 each).
Three days after initiation of treatment female mice were added to a cage containing a male SCID mouse in a 1:1 ratio. All males had been housed separately three days prior to encountering the females and female bedding had been added to the male cages to enhance the males' libido.
For the following seven days every female was checked for a vaginal mucous plug as a sign of mating. These exams were performed during the early morning hours to optimize the results. Once a mucous plug had been noticed, mating was considered ‘successful’, and the female was not further examined in order to minimize iatrogenic stress.
Over the course of pregnancy the following parameters were assessed: ‘Mating Time’ describing the time between male encounter and the occurrence of a mucous plug; ‘Pregnancy Rate’, measured by ultrasound 15 days after the mucous plug was observed. The number of viable fetus was counted during this procedure; ‘Length of Pregnancy’, as measured from the time of successful mating to delivery; ‘Number of Total and Viable Litter’, counted on the day of birth; ‘Weight of Individual Pup’, by weighing the entire litter on the day of birth and calculating the mean weight.

[1] = test system: human microvascular endothelial cells (HMVECs); assay: VEGF-induced migration of HMVECs, modified Boyden chamber; type: cell-based; details: 100 ng/ml, VEGF 5 ng/ml
Description: Endostatin peptides were tested for anti-endothelial cell migration activity. Inhibition of VEGF-induced migration of human microvascular endothelial cells (HMVECs) was determined using several doses of endostatin peptides (FIG. 5). Human peptides were used because the cells were of human origin and the migration response of the HMVECs was assayed using a modified Boyden chamber. VEGF (5 ng/ml) was used a chemotactic agent and cells were challenged with human endostatin (Entremed; EM-ES), human Fc-Endostatin (nFcES), human P1 (hP1), human P2 (hP2), human P6 (hP6), and human P1-H1/3A (hP1-H1/3A). Total migration per membrane was quantified from the capture images using Scion Image Software (National Institutes of Health) and the unpaired Student T test was used for statistical analysis. […] No significant differences in inhibition between these concentrations were observed. At higher and lower concentrations less or no inhibition was observed. At 500 ng/ml of hP1 no inhibition was observed. Thus, similar to full-length endostatin, there is a U-shaped response to hP1 inhibition of EC migration.
The motility response of HMVEC-d cells was assayed using a modified Boyden chamber. Cells were plated in T75-cm2 flasks at 0.5×10^6 cells per flask and allowed to grow for 48 h (˜70% confluent) prior to the migration assay. To facilitate cell adhesion, the upper membrane of a transwell ([…]; Costar) was coated with fibronectin ([…]; Becton Dickinson, Bedford, Mass.) for 1 h at 37° C. Coated membranes were rinsed with PBS and allowed to air dry immediately before use. Cells were detached by trypsinization, treated with trypsinization neutralization solution (Clonetics), and resuspended at a final concentration of 1×10^6 cells/ml in serum-free endothelial basal medium (EBM; Clonetics) containing 0.1% BSA. Cells (200,000 in 0.2 ml) were then treated with 0.2 ml of EBM/BSA containing endostatin or peptides at the indicated concentrations. Cells were incubated for 20 min. at 37° C. with occasional shaking. Cells (50,000 in 100 μl) were added to the upper chamber of the transwell. EBM or EBM supplemented with VEGF (5 ng/ml) was added to the lower chamber and cells were allowed to migrate toward the bottom chamber for 4 h in a humidified incubator containing 5% CO2. Transwell filters were rinsed once with PBS and fixed and stained using a Diff-Quik staining kit (Baxter) following the manufacturer's protocol. Non-migrated cells were removed from the upper chamber with a cotton swab. Stained filters were cut out of the chamber and mounted onto slides using Permount (Fisher). The number of migrated cells was measured using microscopy (three fields from each membrane were captured using a 40× objective), and images were captured with a CCD camera using SPOT software. Total migration per membrane was quantified from the captured images using Scion Image software (National Institutes of Health). All experiments were run in triplicate. The unpaired Student t-test was used for statistical analysis.

[2] = test system: human umbilical vein endothelial cells (HUVEC); assay: VEGF stimulated migration of HUVEC, modified Boyden chambers; type: cell-based; details: FIG. 13
Description: Cell migration assays were performed using modified Boyden chambers (6.5-mm diameter, 10-μm thickness, 8-μm pores, Transwell-Costar Corp., Cambridge, Mass.) coated with 10 μg/ml fibronectin in PBS overnight at 4° C. and rinsed with PBS. Subconfluent cells were trypsinized (0.01% trypsin/5 mM EDTA), neutralized with trypsin neutralization solution (Cascade Biologics Inc., Portland, Oreg.), washed, and resuspended in endothelial basal medium (EBM; Clonetics) with 0.1% BSA in the presence or absence of human endostatin (40, 200, 1000 ng/ml). In a second experiment we added either 600 ng/ml human endostatin or mP-1 at various doses (60, 200, 600 ng/ml). Cells were maintained in suspension for 30 min, added to the top of each migration chamber and allowed to migrate for 4 h in the presence or absence of VEGF (5 ng/ml) in lower chamber. Adherent cells were fixed and stained using the Hema-3 Stain System (Fisher Diagnostics, Middletown, Va.), following manufacturer's instructions. Non-migratory cells were removed with a cotton swab, and the number of migratory cells per membrane was captured using bright field microscopy connected to a Spot digital camera (Diagnostic Instruments, Sterling Heights, Mich.). Migrated cells from the captured image were counted using NIH image software. […]

B1: human endostatin (EntreMed): recombinant human endostatin, gift from EntreMed Corporation (protein, listed as Homo sapiens)
chain: HSHRDFQPVLHLVALNSPLSGGMRGIRGADFQCFQQARAVGLAGTFRAFLSSRLQDLYSIVRRADRAAVPIVNLKDELLFPSWEALFSGSEGPLKPGARIFSFNGKDVLTHPTWPQKSVWHGSDPNGRRLTESYCETWRTEAPSATGQAYSLLGGRLLGQSAASCHHAYIVLCIENSFMTASK
- mean length of pregnancy (Female SCID mice; endostatin pumps, two experiments): 20.6 ± 1.2 days and 20.75 ± 2 days
- pregnancy rate with live births (Female SCID mice; injection group): 60%
- litter size per delivery (Female SCID mice; injection studies, PBS 4.2±2.4): 5±1
- effect on the offspring (Female SCID mice; offspring of treated mice): did not see any negative effect on the offspring
- litter size per delivery (Female SCID mice; pump group, PBS 4.6±1.7): 5±1.8
- mean weight of pups on the day of delivery (Female SCID mice; pump groups, PBS 1.4): 1.51 g
- mating time (Female SCID mice; s.c. injections (endostatin 100 mg/kg daily; mP-1 2.5 mg/kg twice daily), PBS 1.9±0.9): 2.8 ± 1.5 days
- mating time (Female SCID mice; s.c. osmotic pumps (endostatin 20 mg/kg), PBS 2.0±1): 2.6 ± 1.4 days
- inhibition of EC migration [1]: not at 100 ng/ml
- migration of HUVEC [2]: inhibit migration
